Measured values taken from the supplement of paper PMC9112550, “Optimization of the antimicrobial peptide Bac7 by deep mutational scanning” (BMC Biology, 2022).

Tested on: Escherichia coli TOP10
Experiment: shrunken log2 fold change of peptide-encoding DNA abundance (4.5 h post-induction vs induction); higher = less antimicrobial activity (less host growth inhibition)
Settings: time post-induction: 4.5 h; library: site-saturation at positions 5, 18, 19, 20
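Also: peptides expressed intracellularly from a pBAD plasmid library in pooled LB shake-flask culture, induced with 0.3% L-arabinose, DNA abundance read by NGS, three biological replicates, DESeq2 with apeglm shrinkage.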

RRIRYRPPRLPRPRPRPAPGPRP
shrunken log2 fold change: 0.391

RRIRFRPPRLPRPRPRPAGCPRP
shrunken log2 fold change: 0.229

RRIRGRPPRLPRPRPRPTQTPRP
shrunken log2 fold change: 0.775

RRIRGRPPRLPRPRPRPFLCPRP
shrunken log2 fold change: 0.231

RRIRNRPPRLPRPRPRPWKRPRP
shrunken log2 fold change: -0.0326

RRIRERPPRLPRPRPRPISLPRP
shrunken log2 fold change: -0.28

RRIRLRPPRLPRPRPRPKRVPRP
shrunken log2 fold change: -0.116

RRIRPRPPRLPRPRPRPASQPRP
shrunken log2 fold change: 0.0417

RRIRTRPPRLPRPRPRPCHAPRP
shrunken log2 fold change: -0.0567

RRIRIRPPRLPRPRPRPHMRPRP
shrunken log2 fold change: 0.128

RRIRCRPPRLPRPRPRPYVKPRP
shrunken log2 fold change: -0.647

RRIRVRPPRLPRPRPRPGMVPRP
shrunken log2 fold change: 0.0182

RRIRDRPPRLPRPRPRPKDDPRP
shrunken log2 fold change: 0.0765

RRIRQRPPRLPRPRPRPNQAPRP
shrunken log2 fold change: -0.0235

RRIRKRPPRLPRPRPRPVMHPRP
shrunken log2 fold change: -0.0631

RRIRNRPPRLPRPRPRPIMCPRP
shrunken log2 fold change: -0.148

RRIRDRPPRLPRPRPRPVAIPRP
shrunken log2 fold change: 0.711

RRIRHRPPRLPRPRPRPSDNPRP
shrunken log2 fold change: 0.129

RRIRQRPPRLPRPRPRPKYCPRP
shrunken log2 fold change: 0.0636

RRIRQRPPRLPRPRPRPMAPPRP
shrunken log2 fold change: 0.0505

RRIRTRPPRLPRPRPRPNNSPRP
shrunken log2 fold change: -0.61

RRIRGRPPRLPRPRPRPLMIPRP
shrunken log2 fold change: 0.139

RRIRYRPPRLPRPRPRPQVHPRP
shrunken log2 fold change: -0.0163

RRIRPRPPRLPRPRPRPVIKPRP
shrunken log2 fold change: -0.215

RRIRGRPPRLPRPRPRPVKRPRP
shrunken log2 fold change: 0.248

RRIRKRPPRLPRPRPRPTPWPRP
shrunken log2 fold change: 0.798

RRIRFRPPRLPRPRPRPPLGPRP
shrunken log2 fold change: 1.33

RRIRTRPPRLPRPRPRPRVAPRP
shrunken log2 fold change: 0.258

RRIRHRPPRLPRPRPRPNLGPRP
shrunken log2 fold change: -0.00355

RRIRTRPPRLPRPRPRPMACPRP
shrunken log2 fold change: 0.0855

RRIRRRPPRLPRPRPRPEEVPRP
shrunken log2 fold change: 0.0988

RRIRMRPPRLPRPRPRPLFHPRP
shrunken log2 fold change: -0.0668

RRIRWRPPRLPRPRPRPGQQPRP
shrunken log2 fold change: -0.17

RRIRVRPPRLPRPRPRPHSYPRP
shrunken log2 fold change: -0.262

RRIRLRPPRLPRPRPRPFDTPRP
shrunken log2 fold change: -0.167

RRIRMRPPRLPRPRPRPKFIPRP
shrunken log2 fold change: -0.182

RRIRSRPPRLPRPRPRPCTGPRP
shrunken log2 fold change: -0.0404

RRIRARPPRLPRPRPRPNLFPRP
shrunken log2 fold change: -0.0329

RRIRNRPPRLPRPRPRPDWNPRP
shrunken log2 fold change: -0.212

RRIRHRPPRLPRPRPRPEKRPRP
shrunken log2 fold change: -0.01

RRIRQRPPRLPRPRPRPWWRPRP
shrunken log2 fold change: 0.0847

RRIRGRPPRLPRPRPRPFISPRP
shrunken log2 fold change: 0.183

RRIRDRPPRLPRPRPRPALPPRP
shrunken log2 fold change: 0.328

RRIRIRPPRLPRPRPRPVVWPRP
shrunken log2 fold change: 0.321

RRIRMRPPRLPRPRPRPECCPRP
shrunken log2 fold change: 3.54

RRIRERPPRLPRPRPRPAAHPRP
shrunken log2 fold change: -0.128

RRIRNRPPRLPRPRPRPSRGPRP
shrunken log2 fold change: 0.513

RRIRYRPPRLPRPRPRPREKPRP
shrunken log2 fold change: 0.124

RRIRDRPPRLPRPRPRPQTRPRP
shrunken log2 fold change: 0.138

RRIRDRPPRLPRPRPRPEVGPRP
shrunken log2 fold change: 0.00896

RRIRKRPPRLPRPRPRPCYHPRP
shrunken log2 fold change: -0.339

RRIRVRPPRLPRPRPRPQCSPRP
shrunken log2 fold change: -0.18

RRIRHRPPRLPRPRPRPIMMPRP
shrunken log2 fold change: 0.013

RRIRQRPPRLPRPRPRPKPTPRP
shrunken log2 fold change: -0.0515

RRIRTRPPRLPRPRPRPPGNPRP
shrunken log2 fold change: -0.0517

RRIRFRPPRLPRPRPRPRRWPRP
shrunken log2 fold change: 0.934

RRIRYRPPRLPRPRPRPGILPRP
shrunken log2 fold change: -0.0404

RRIRYRPPRLPRPRPRPAFEPRP
shrunken log2 fold change: -0.0224

RRIRPRPPRLPRPRPRPMRIPRP
shrunken log2 fold change: 0.189

RRIRYRPPRLPRPRPRPTDNPRP
shrunken log2 fold change: -1.05

RRIRHRPPRLPRPRPRPFTAPRP
shrunken log2 fold change: -0.559

RRIRARPPRLPRPRPRPRKVPRP
shrunken log2 fold change: 0.615

RRIRCRPPRLPRPRPRPNTAPRP
shrunken log2 fold change: -0.22

RRIRYRPPRLPRPRPRPHRAPRP
shrunken log2 fold change: -0.213

RRIRYRPPRLPRPRPRPLLWPRP
shrunken log2 fold change: -0.246

RRIRQRPPRLPRPRPRPWYHPRP
shrunken log2 fold change: -0.32

RRIRSRPPRLPRPRPRPIRHPRP
shrunken log2 fold change: -0.0283

RRIRPRPPRLPRPRPRPGERPRP
shrunken log2 fold change: 0.1

RRIRCRPPRLPRPRPRPESNPRP
shrunken log2 fold change: 0.00481

RRIRCRPPRLPRPRPRPEYAPRP
shrunken log2 fold change: 0.204

RRIRWRPPRLPRPRPRPVKPPRP
shrunken log2 fold change: 0.539

RRIRERPPRLPRPRPRPYAQPRP
shrunken log2 fold change: -0.384

RRIRDRPPRLPRPRPRPKVVPRP
shrunken log2 fold change: -0.01

RRIRMRPPRLPRPRPRPQKGPRP
shrunken log2 fold change: -0.0123

RRIRDRPPRLPRPRPRPHNSPRP
shrunken log2 fold change: 0.0166

RRIRSRPPRLPRPRPRPCMTPRP
shrunken log2 fold change: -0.102

RRIRCRPPRLPRPRPRPGYQPRP
shrunken log2 fold change: -0.06

RRIRSRPPRLPRPRPRPNPEPRP
shrunken log2 fold change: 0.0679

RRIRTRPPRLPRPRPRPHYVPRP
shrunken log2 fold change: -0.0402

RRIRNRPPRLPRPRPRPGTGPRP
shrunken log2 fold change: -0.127

RRIRRRPPRLPRPRPRPCNIPRP
shrunken log2 fold change: -0.373

RRIRNRPPRLPRPRPRPNSTPRP
shrunken log2 fold change: 2.34

RRIRTRPPRLPRPRPRPQDAPRP
shrunken log2 fold change: -0.0107

RRIRQRPPRLPRPRPRPDGGPRP
shrunken log2 fold change: 0.255

RRIRWRPPRLPRPRPRPPEHPRP
shrunken log2 fold change: 0.544

RRIRYRPPRLPRPRPRPEDLPRP
shrunken log2 fold change: -0.00674

RRIRSRPPRLPRPRPRPMRAPRP
shrunken log2 fold change: 0.706

RRIRQRPPRLPRPRPRPDTYPRP
shrunken log2 fold change: -0.154

RRIRKRPPRLPRPRPRPYYMPRP
shrunken log2 fold change: -0.405

RRIRLRPPRLPRPRPRPNVVPRP
shrunken log2 fold change: -0.19

RRIRARPPRLPRPRPRPHTDPRP
shrunken log2 fold change: -0.111

RRIRFRPPRLPRPRPRPTEKPRP
shrunken log2 fold change: -0.0949

RRIRPRPPRLPRPRPRPHNHPRP
shrunken log2 fold change: -0.609

RRIRHRPPRLPRPRPRPGHNPRP
shrunken log2 fold change: -0.166

RRIRMRPPRLPRPRPRPPRGPRP
shrunken log2 fold change: 1.17

RRIRIRPPRLPRPRPRPRYQPRP
shrunken log2 fold change: 0.00748

RRIRIRPPRLPRPRPRPGYGPRP
shrunken log2 fold change: -0.309

RRIRSRPPRLPRPRPRPPKKPRP
shrunken log2 fold change: 0.282

RRIRNRPPRLPRPRPRPLYIPRP
shrunken log2 fold change: -0.826

RRIRYRPPRLPRPRPRPRKCPRP
shrunken log2 fold change: -0.247

RRIRARPPRLPRPRPRPNMYPRP
shrunken log2 fold change: -0.38

RRIRPRPPRLPRPRPRPMEEPRP
shrunken log2 fold change: -0.0433

RRIRYRPPRLPRPRPRPTDIPRP
shrunken log2 fold change: -0.031

RRIRTRPPRLPRPRPRPDIWPRP
shrunken log2 fold change: -0.392

RRIRTRPPRLPRPRPRPDQCPRP
shrunken log2 fold change: 0.0333

RRIRHRPPRLPRPRPRPFMVPRP
shrunken log2 fold change: -0.43

RRIRWRPPRLPRPRPRPDVKPRP
shrunken log2 fold change: -0.26

RRIRTRPPRLPRPRPRPCSEPRP
shrunken log2 fold change: -0.0314

RRIRLRPPRLPRPRPRPYPWPRP
shrunken log2 fold change: -0.141

RRIRTRPPRLPRPRPRPCLNPRP
shrunken log2 fold change: -0.000349

RRIRERPPRLPRPRPRPTPQPRP
shrunken log2 fold change: 0.246

RRIRNRPPRLPRPRPRPQRKPRP
shrunken log2 fold change: 0.103

RRIRCRPPRLPRPRPRPMQEPRP
shrunken log2 fold change: -0.0194

RRIRGRPPRLPRPRPRPPDHPRP
shrunken log2 fold change: 0.982

RRIRVRPPRLPRPRPRPQKRPRP
shrunken log2 fold change: -0.0953

RRIRCRPPRLPRPRPRPTHKPRP
shrunken log2 fold change: 0.298

RRIRRRPPRLPRPRPRPSSKPRP
shrunken log2 fold change: -0.145

RRIRDRPPRLPRPRPRPKKSPRP
shrunken log2 fold change: 0.102

RRIRSRPPRLPRPRPRPIDWPRP
shrunken log2 fold change: 0.217

RRIRCRPPRLPRPRPRPKWFPRP
shrunken log2 fold change: 0.0996

RRIRKRPPRLPRPRPRPATPPRP
shrunken log2 fold change: 0.939

RRIRYRPPRLPRPRPRPIYQPRP
shrunken log2 fold change: -0.614

RRIRHRPPRLPRPRPRPMWTPRP
shrunken log2 fold change: -0.126

RRIRMRPPRLPRPRPRPMVDPRP
shrunken log2 fold change: 0.0184

RRIRSRPPRLPRPRPRPYTAPRP
shrunken log2 fold change: -0.752
